Results reported in the supplement of paper PMC11908140.

B1: library; numbered along this chain (parent)
chain: MRKPRAAVGSGHRKQAASQEGRQKHAKNNSQAKPSACDGLARQPEEVVLQASVSSYHLFRDVAEVTAFRGSLLSWYDQEKRDLPWRRRAEDEMDLDRRAYAVWVSEVMLQQTQVATVINYYTGWMQKWPTLQDLASASLEEVNQLWAGLGYYSRGRRLQEGARKVVEELGGHMPRTAETLQQLLPGVGRYTAGAIASIAFGQATGVVDGNVARVLCRVRAIGADPSSTLVSQQLWGLAQQLVDPARPGDFNQAAMELGATVCTPQRPLCSQCPVESLCRARQRVEQEQLLASGSLSGSPDVEECAPNTGQCHLCLPPSEPWDQTLGVVNFPRKASRKPPREESSATCVLEQPGALGAQILLVQRPNSGLLAGLWEFPSVTWEPSEQLQRKALLQELQRWAGPLPATHLRHLGEVVHTFSHIKLTYQVYGLALEGQTPVTTVPPGARWLTQEEFHTAAVSTAMKKVFRVYQGQQPGTCMGSKRSQVSSPCSRKKPRMGQQVLDNFFRSHISTDAHSLNSAAQ

Variants of: B1
Experiment: 8OG:A repair function score (normalized; synonymous = 0, nonsense = -1) (normalized log-likelihood score); higher = more repair activity (WT-like)
Conditions: with 8OG:A DNA repair reporter (GFP) in HEK-293 MUTYH KO cells
Summary of the method: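 Lentiviral MUTYH cDNA NNN codon-scan libraries in HEK-293 MUTYH knockout cells (10 pg/ml doxycycline) were co-transfected with an 8OG:A GFP repair reporter plus mCherry. At 72 h, viable mCherry+ cells were sorted into GFP+ (repair) and GFP− bins, three replicates per tile, then tile amplicons were sequenced. Per-tile Rosace fitness scores became a normalized repair function score anchored on synonymous and nonsense distributions. Synonymous medians were set to 0 and nonsense to -1; variants under 300 counts per million at the start were removed.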

Variant | 8OG:A repair function score
P474N | -0.0807
P474L | 0.0136
P474Y | -0.0117
P474Q | 0.0183
P474I | -0.014
P474G | -0.00334
P474K | -0.0164
P474H | 0.0269
P474A | -0.0123
P474W | -0.0167
P474D | 0.00257
P474E | 0.0263
P474F | 0.0108
P474R | 0.00458
P474C | -0.00224
P474M | 0.0118
P474T | 0.0285
P474V | 0.00398
P474S | -0.00281
Q473V | 0.00634
Q473N | 0.0155
Q473Y | -0.023
Q473T | -0.00244
Q473S | 0.00408

Variant | 8OG:A repair function score
Q473M | 0.0265
Q473R | 0.00304
Q473P | -0.0268
Q473W | 0.0181
G479W | -0.0628
G479H | 0.0228
G479K | 0.00166
G479V | 0.00419
G479M | -0.0116
G479Y | 0.025
G479D | 0.0194
G479C | -0.0498
G479L | 0.00935
G479S | 0.00355
G479F | -0.00391
G479P | 0.0129
G479N | -0.00734
G479I | -0.00859
G479A | 0.00119
G479T | -0.0258
G479Q | 0.0264
G479E | 0.0225
G479R | -0.0309
C477D | 0.016

Variant | 8OG:A repair function score
C477Q | 0.0117
C477T | 0.019
C477I | -0.0054
C477F | -0.0432
C477W | 0.00839
C477Y | -0.016
C477S | -0.00994
C477A | -0.00821
C477M | 0.00893
C477L | 0.0205
C477P | -0.00239
C477N | 0.0283
C477G | -0.00235
C477V | -0.0256
C477R | 0.000623
C477H | 0.0203
C477E | -0.0756
C477K | 0.00687
K481W | -0.0431
K481P | 0.00979
K481V | -0.0202
K481N | -2.28e-05
K481H | -0.0426
K481I | 0.000486

Variant | 8OG:A repair function score
K481R | 0.0229
K481Y | -0.0542
K481S | -0.00188
K481Q | -0.00252
K481C | 0.0191
K481M | -0.00967
K481F | 0.0166
K481D | 0.016
K481E | -0.00514
K481G | -0.0136
K481T | -0.0524
K481L | -0.0084
K481A | -0.00494
R482D | -0.000963
R482G | 0.0105
R482E | 0.00949
R482A | 0.0234
R482C | 0.0254
R482F | 0.0283
T476H | -0.0339
T476I | -0.074
T476C | -0.0603
T476M | -0.0533
T476V | -0.0294

Variant | 8OG:A repair function score
T476A | -0.0442
T476D | 0.00347
T476K | 0.024
T476R | -0.0215
T476E | 0.0105
T476P | -0.0234
T476Q | -0.0039
T476L | -0.0267
T476F | 0.0194
T476N | -0.0111
T476S | 0.00281
T476W | -0.159
T476Y | -0.0187
T476G | -0.0416
G475F | -0.00573
G475I | -0.00703
G475M | -0.126
G475P | -0.00826
G475N | 0.0259
G475L | 0.0136
G475S | -0.016
G475H | -0.0609
G475A | 0.000317
G475K | 0.0247

Variant | 8OG:A repair function score
G475C | 0.00154
G475Y | -0.00721
G475R | 0.00413
G475V | -0.0131
G475W | -0.0871
G475T | -0.0403
G475D | -0.00652
G475E | -0.00575
G475Q | -0.00214
S480E | -0.00292
S480T | 0.0286
S480N | 0.0064
S480R | 0.00162
S480Q | -0.00583
S480F | -0.0271
S480K | 0.0154
S480V | 0.00525
S480H | 0.0192
S480C | -0.0352
S480W | 0.022
S480G | 0.00341
S480L | -0.0111
S480I | -0.0226
S480D | 0.0166

Variant | 8OG:A repair function score
S480M | 0.0231
S480A | 0.0216
S480Y | -0.0114
S480P | -0.000393
M478P | -0.0126
M478F | 0.0278
M478Y | 0.0167
M478K | 0.00017
M478N | -0.0119
M478W | 0.0205
M478Q | 0.0193
M478D | -0.0222
M478L | -0.0153
M478C | 0.0262
M478I | -0.0519
M478V | -0.00439
M478E | 0.0141
M478S | -0.00625
M478T | -0.0383
M478R | -0.0213
M478H | -0.119
M478G | 0.0207
M478A | -0.0431
